Data taken from US11653679B2, “High-purity steviol glycosides” (PureCircle Sdn Bhd, priority 2014, dated 2023).
Changes are numbered by the printed parent chain.

B1: UGT76G1var17: UGT76G1 variant, mutations F265L_Q266E_Q342K (protein, UniProt Q6VAB4 1-458, looked up, variant F265L Q266E Q342K)
UDP-glycosyltransferase 76G1: MENKTETTVRRRRRIILFPVPFQGHINPILQLANVLYSKGFSITIFHTNFNKPKTSNYPHFTFRFILDNDPQDERISNLPTHGPLAGMRIPIINEHGADELRRELELLMLASEEDEEVSCLITDALWYFAQSVADSLNLRRLVLMTSSLFNFHAHVSLPQFDELGYLDPDDKTRLEEQASGFPMLKVKDIKSAYSNWQILKEILGKMIKQTKASSGVIWNSFKELEESELETVIREIPAPSFLIPLPKHLTASSSSLLDHDRTVLEWLDQQPPSSVLYVSFGSTSEVDEKDFLEIARGLVDSKQSFLWVVRPGFVKGSTWVEPLPDGFLGERGRIVKWVPQKEVLAHGAIGAFWTHSGWNSTLESVCEGVPMIFSDFGLDQPLNARYMSDVLKVGVYLENGWERGEIANAIRRVMVDEEGEYIRQNARVLKQKADVSLMKGGSSYESLESLVSYISSL
B2: UGT76G1var28: UGT76G1 variant, mutations L243A_S274G_P382M (protein, UniProt Q6VAB4 1-458, looked up, variant L243A S274G P382M)
UDP-glycosyltransferase 76G1: B1 UDP-glycosyltransferase 76G1 with L243A, L265F, E266Q, S274G, K342Q, P382M
B3: UGT76G1var41: UGT76G1 variant, mutations L246F_A385T_K393G (protein, UniProt Q6VAB4 1-458, looked up, variant L246F A385T K393G)
UDP-glycosyltransferase 76G1: B1 UDP-glycosyltransferase 76G1 with L246F, L265F, E266Q, K342Q, A385T, K393G
B4: UGT76G1var24: UGT76G1 variant, mutations A239I_P272A_Q425E (protein, UniProt Q6VAB4 1-458, looked up, variant A239I P272A Q425E)
UDP-glycosyltransferase 76G1: B1 UDP-glycosyltransferase 76G1 with A239I, L265F, E266Q, P272A, K342Q, Q425E
B5: UGT76G1var44: UGT76G1 variant, mutations I335V_S375R_I407V (protein, UniProt Q6VAB4 1-458, looked up, variant I335V S375R I407V)
UDP-glycosyltransferase 76G1: B1 UDP-glycosyltransferase 76G1 with L265F, E266Q, I335V, K342Q, S375R, I407V
B6: UGT76G1var40: UGT76G1 variant, mutations T263S_Q266E_S375R (protein, UniProt Q6VAB4 1-458, looked up, variant T263S Q266E S375R)
UDP-glycosyltransferase 76G1: B1 UDP-glycosyltransferase 76G1 with T263S, L265F, K342Q, S375R
B7: UGT76G1var36: UGT76G1 variant, mutations F265L_L379A_V396F (protein, UniProt Q6VAB4 1-458, looked up, variant F265L L379A V396F)
UDP-glycosyltransferase 76G1: B1 UDP-glycosyltransferase 76G1 with E266Q, K342Q, L379A, V396F
B8: UGT76G1var29: UGT76G1 variant, mutations F22Y_V279I_N409R (protein, UniProt Q6VAB4 1-458, looked up, variant F22Y V279I N409R)
UDP-glycosyltransferase 76G1: B1 UDP-glycosyltransferase 76G1 with F22Y, L265F, E266Q, V279I, K342Q, N409R
B9: UGT76G1var43: UGT76G1 variant, mutations S241I_P272A_V279I (protein, UniProt Q6VAB4 1-458, looked up, variant S241I P272A V279I)
UDP-glycosyltransferase 76G1: B1 UDP-glycosyltransferase 76G1 with S241I, L265F, E266Q, P272A, V279I, K342Q
B10: UGT76G1var32: UGT76G1 variant, mutations A239V_L243A_S375M (protein, UniProt Q6VAB4 1-458, looked up, variant A239V L243A S375M)
UDP-glycosyltransferase 76G1: B1 UDP-glycosyltransferase 76G1 with A239V, L243A, L265F, E266Q, K342Q, S375M
B11: UGT76G1var42: UGT76G1 variant, mutations T263S_Q266S_R334H (protein, UniProt Q6VAB4 1-458, looked up, variant T263S Q266S R334H)
UDP-glycosyltransferase 76G1: B1 UDP-glycosyltransferase 76G1 with T263S, L265F, E266S, R334H, K342Q
B12: UGT76G1var23: UGT76G1 variant, mutations T263S_G348P_A352G (protein, UniProt Q6VAB4 1-458, looked up, variant T263S G348P A352G)
UDP-glycosyltransferase 76G1: B1 UDP-glycosyltransferase 76G1 with T263S, L265F, E266Q, K342Q, G348P, A352G
B13: UGT76G1var18: UGT76G1 variant, mutations L243P_S274G_N409R (protein, UniProt Q6VAB4 1-458, looked up, variant L243P S274G N409R)
UDP-glycosyltransferase 76G1: B1 UDP-glycosyltransferase 76G1 with L243P, L265F, E266Q, S274G, K342Q, N409R
B14: UGT76G1var39: UGT76G1 variant, mutations F22Y_F41L_V366I (protein, UniProt Q6VAB4 1-458, looked up, variant F22Y F41L V366I)
UDP-glycosyltransferase 76G1: B1 UDP-glycosyltransferase 76G1 with F22Y, F41L, L265F, E266Q, K342Q, V366I
B15: UGT76G1var22: UGT76G1 variant, mutations E231A_V310I_R334K (protein, UniProt Q6VAB4 1-458, looked up, variant E231A V310I R334K)
UDP-glycosyltransferase 76G1: B1 UDP-glycosyltransferase 76G1 with E231A, L265F, E266Q, V310I, R334K, K342Q
B16: UGT76G1var35: UGT76G1 variant, mutations T284L_F314S_S357N (protein, UniProt Q6VAB4 1-458, looked up, variant T284L F314S S357N)
UDP-glycosyltransferase 76G1: B1 UDP-glycosyltransferase 76G1 with L265F, E266Q, T284L, F314S, K342Q, S357N
B17: UGT76G1var33: UGT76G1 variant, mutations A33G_R334H_Y397Q (protein, UniProt Q6VAB4 1-458, looked up, variant A33G R334H Y397Q)
UDP-glycosyltransferase 76G1: B1 UDP-glycosyltransferase 76G1 with A33G, L265F, E266Q, R334H, K342Q, Y397Q
B18: UGT76G1var27: UGT76G1 variant, mutations A239I_L379A_V394I (protein, UniProt Q6VAB4 1-458, looked up, variant A239I L379A V394I)
UDP-glycosyltransferase 76G1: B1 UDP-glycosyltransferase 76G1 with A239I, L265F, E266Q, K342Q, L379A, V394I
B19: UGT76G1var20: UGT76G1 variant, mutations S375M_K393G_Y397E (protein, UniProt Q6VAB4 1-458, looked up, variant S375M K393G Y397E)
UDP-glycosyltransferase 76G1: B1 UDP-glycosyltransferase 76G1 with L265F, E266Q, K342Q, S375M, K393G, Y397E
B20: UGT76G1var46: UGT76G1 variant, mutations F22L_Q266E_I295M (protein, UniProt Q6VAB4 1-458, looked up, variant F22L Q266E I295M)
UDP-glycosyltransferase 76G1: B1 UDP-glycosyltransferase 76G1 with F22L, L265F, I295M, K342Q
B21: UGT76G1var45: UGT76G1 variant, mutations V279I_D301N_S389E (protein, UniProt Q6VAB4 1-458, looked up, variant V279I D301N S389E)
UDP-glycosyltransferase 76G1: B1 UDP-glycosyltransferase 76G1 with L265F, E266Q, V279I, D301N, K342Q, S389E
B22: UGT76G1var38: UGT76G1 variant, mutations F41L_I295M_F377C (protein, UniProt Q6VAB4 1-458, looked up, variant F41L I295M F377C)
UDP-glycosyltransferase 76G1: B1 UDP-glycosyltransferase 76G1 with F41L, L265F, E266Q, I295M, K342Q, F377C
B23: UGT76G1var19: UGT76G1 variant, mutations E224D_E229A_Q432E (protein, UniProt Q6VAB4 1-458, looked up, variant E224D E229A Q432E)
UDP-glycosyltransferase 76G1: B1 UDP-glycosyltransferase 76G1 with E224D, E229A, L265F, E266Q, K342Q, Q432E
B24: UGT76G1var26: UGT76G1 variant, mutations S241I_F265L_F377C (protein, UniProt Q6VAB4 1-458, looked up, variant S241I F265L F377C)
UDP-glycosyltransferase 76G1: B1 UDP-glycosyltransferase 76G1 with S241I, E266Q, K342Q, F377C
B25: UGT76G1var34: UGT76G1 variant, mutations I43V_T284I_I295T (protein, UniProt Q6VAB4 1-458, looked up, variant I43V T284I I295T)
UDP-glycosyltransferase 76G1: B1 UDP-glycosyltransferase 76G1 with I43V, L265F, E266Q, T284I, I295T, K342Q
B26: UGT76G1var30: UGT76G1 variant, mutations I43V_E224A_S241I (protein, UniProt Q6VAB4 1-458, looked up, variant I43V E224A S241I)
UDP-glycosyltransferase 76G1: B1 UDP-glycosyltransferase 76G1 with I43V, E224A, S241I, L265F, E266Q, K342Q
B27: UGT76G1var1: UGT76G1 variant, mutations E224A_F314S_R334K (protein, UniProt Q6VAB4 1-458, looked up, variant E224A F314S R334K)
UDP-glycosyltransferase 76G1: B1 UDP-glycosyltransferase 76G1 with E224A, L265F, E266Q, F314S, R334K, K342Q
B28: UGT76G1var37: UGT76G1 variant, mutations E229A_L379G_I407V (protein, UniProt Q6VAB4 1-458, looked up, variant E229A L379G I407V)
UDP-glycosyltransferase 76G1: B1 UDP-glycosyltransferase 76G1 with E229A, L265F, E266Q, K342Q, L379G, I407V
B29: UGT76G1var31: UGT76G1 variant, mutations E224D_L243P_V300A (protein, UniProt Q6VAB4 1-458, looked up, variant E224D L243P V300A)
UDP-glycosyltransferase 76G1: B1 UDP-glycosyltransferase 76G1 with E224D, L243P, L265F, E266Q, V300A, K342Q
B30: UGT76G1var25: UGT76G1 variant, mutations T284L_Q342K_Y397Q (protein, UniProt Q6VAB4 1-458, looked up, variant T284L Q342K Y397Q)
UDP-glycosyltransferase 76G1: B1 UDP-glycosyltransferase 76G1 with L265F, E266Q, T284L, Y397Q
B31: UGT76G1var21: UGT76G1 variant, mutations A239V_V300A_K303G (protein, UniProt Q6VAB4 1-458, looked up, variant A239V V300A K303G)
UDP-glycosyltransferase 76G1: B1 UDP-glycosyltransferase 76G1 with A239V, L265F, E266Q, V300A, K303G, K342Q

Experiment: Directed evolution of UGT76G1, Rebaudioside D to Rebaudioside M, round 1 (Example 26)
Format: biochemical
Conditions: 100 μL fresh lysate, 0.5 mM Rebaudioside D, 30° C., pH 7.2
Method: Lysis was performed by addition of Bugbuster® Master mix (Novagen®) to the thawed cells and the lysate was recovered by centrifugation. Activity tests were performed with 100 μL of fresh lysate that was added to a solution of Rebaudioside D (final concentration 0.5 mM), MgCl2 (final concentration 3 mM) and UDP-Glucose (final concentration 2.5 mM) in 50 mM phosphate buffer pH 7.2.
The reaction was allowed to run at 30° C. and samples were taken after 2, 4, 7 and 24 h. to determine conversion and initial rate by HPLC (CAD detection) using the analytical method that was described above for the transformation of Rebaudioside D to Rebaudioside M. The results are depicted in the following table.

Molecule | conversion Reb D to Reb M after 24 h [%] | initial rate [Reb M area/min]
B1 | 0.7 | 7.2E+05
B2 | 6.1 | 2.4E+06
B3 | 0.8 | 1.4E+06
B4 | 31.0 | 2.1E+07
B5 | – | 2.3E+07
B6 | – | 3.3E+07
B7 | 20.0 | 8.8E+06
B8 | 41.0 | 2.9E+07
B9 | – | 9.4E+06
B10 | 0.0 | −4.4E+04
B11 | – | 2.2E+07
B12 | – | 4.1E+07
B13 | 1.9 | 5.0E+05
B14 | 7.2 | 3.3E+06
B15 | – | 2.4E+07
B16 | 0.5 | 1.8E+05

Molecule | conversion Reb D to Reb M after 24 h [%] | initial rate [Reb M area/min]
B17 | 1.0 | 7.5E+06
B18 | 29.0 | 1.5E+07
B19 | 1.8 | 1.9E+06
B20 | 0.6 | 9.8E+05
B21 | – | 2.3E+07
B22 | 8.2 | 3.7E+06
B23 | – | 5.5E+06
B24 | 1.8 | 7.5E+05
B25 | 3.4 | 1.5E+06
B26 | – | 5.6E+06
B27 | – | 5.5E+07
B28 | – | 2.8E+07
B29 | 0.4 | 2.4E+05
B30 | 0.9 | 6.3E+04
B31 | – | 3.3E+07
